± gives the uncertainty stated by the source.
Test: self-splicing fitness, log relative to wild type (ln ratio); higher = more splicing; Tetrahymena group I intron in knt gene, E. coli kanamycin selection, DiMSum; sequences stand for … in CUCUCU…GGAGGGAAAAGUUAUCAGGCAUGCACCUGGUAGCUAGUCUUUAAACCAAUAGAUUGCAUCGGUUUAAAAGGCAAGACCGUCAAAUUGCGGGAAAGGGGUCAACAGCCGUUCAGUACCAAGUCUCAGGGGAAACUUUGAGAUGGCCUUGCAAAGGGUAUGGUAAUAAGCUGACGGACAUGGUCCUAACCACGCAGCCAAGUCCUAAGUCAACAGAUCUUCUGUUGAUAUGGAUGCAGUUCACAGACUAAAUGUCGGUCGGGGAAGAUGUAUUCUUCUCAUAAGAUAUAGUCGGACCUCUCCUUAAUGGGAGCUAGCGGAUGAAGUGAUGCAACACUGGAGCCGCUGGGAACUAAUUUGUAUGCGAAAGUAUAUUGAUUAGUUUUGGAGUACUCGUGGUCG
How it was run: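 Six replicate transformations of E. coli BL21(DE3) with a pET-22b(+) library were grown overnight at 37°C or 30°C. The library randomised all eight P1ex-region intron nucleotides, the intron lying in the knt kanamycin-resistance gene, and plates were LB agar with or without 25 μg/mL kanamycin plus 100 μg/mL carbenicillin, 50 μM IPTG and 0.2% rhamnose. Pooled colonies were amplicon-sequenced on an Illumina HiSeq 2500, and fitness is the DiMSum error-weighted combination of wild-type-normalised replicate fold changes, kanamycin versus none.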

Row | Sequence | self-splicing fitness (ln) (30 °C) | self-splicing fitness (ln) (37 °C)
1 | CGCUAGCAAUAUUACGCAUU | -3.69 ± 0.28 | -2.04 ± 0.27
2 | CGCUAGCAAUAUUACGCGUA | -3.45 ± 0.37 | -1.45 ± 0.15
3 | CGCUAGCAAUAUUACGCGUG | -2.8 ± 0.13 | -1.77 ± 0.12
4 | CGCUAGCAAUAUUACGCUCU | -1.58 ± 0.1 | -0.837 ± 0.099
5 | CGCUAGCAAUAUUACGGCAC | -1.9 ± 0.18 | 0.16 ± 0.19
6 | CGCUAGCAAUAUUACGGCAG | -1.29 ± 0.082 | -0.703 ± 0.15
7 | CGCUAGCAAUAUUACGGCGC | -1.1 ± 0.29 | –
8 | CGCUAGCAAUAUUACGGCUA | -1.91 ± 0.31 | –
9 | CGCUAGCAAUAUUACGGUCU | -1.02 ± 0.1 | -0.659 ± 0.12
10 | CGCUAGCAAUAUUACGUAUG | -1.27 ± 0.066 | -0.236 ± 0.09
11 | CGCUAGCAAUAUUACGUCAU | -3.97 ± 0.35 | -1.25 ± 0.19
12 | CGCUAGCAAUAUUACGUCCA | -1.49 ± 0.27 | -1.04 ± 0.29
13 | CGCUAGCAAUAUUACGUCCG | -0.673 ± 0.092 | -0.4 ± 0.11
14 | CGGAAGCAAUAUUACGAUAU | – | -2.82 ± 0.26
15 | CGGAAGCAAUAUUACGAUGU | -2.72 ± 0.19 | -0.735 ± 0.14
16 | CGGAAGCAAUAUUACGAUUC | -3.95 ± 0.43 | -2.28 ± 0.45
17 | CGGAAGCAAUAUUACGCAUU | -3.52 ± 0.3 | -2.98 ± 0.29
18 | CGGAAGCAAUAUUACGCCAU | -3.61 ± 0.34 | -2.84 ± 0.32
19 | CGGAAGCAAUAUUACGCGCG | -3.13 ± 0.33 | -0.88 ± 0.24
20 | CGGAAGCAAUAUUACGCGGG | -1.64 ± 0.16 | -1.35 ± 0.18
21 | CGGAAGCAAUAUUACGCUCU | – | -1.81 ± 0.44
22 | CGGAAGCAAUAUUACGGCUA | -2.54 ± 0.46 | -0.623 ± 0.28
23 | CGGAAGCAAUAUUACGGUGC | -3.17 ± 0.19 | -2.28 ± 0.19
24 | CGGAAGCAAUAUUACGUACC | -2.22 ± 0.066 | -0.907 ± 0.085
25 | CGGAAGCAAUAUUACGUAGA | -3.45 ± 0.2 | -1.82 ± 0.19

Row | Sequence | self-splicing fitness (ln) (30 °C) | self-splicing fitness (ln) (37 °C)
26 | CGGAAGCAAUAUUACGUAGU | -3.43 ± 0.14 | -1.97 ± 0.13
27 | CGGCAGCAAUAUUACGACGG | -0.297 ± 0.088 | 0.852 ± 0.15
28 | CGGCAGCAAUAUUACGACUU | -0.541 ± 0.06 | -0.196 ± 0.08
29 | CGGCAGCAAUAUUACGAGCG | -0.946 ± 0.09 | -0.441 ± 0.11
30 | CGGCAGCAAUAUUACGAGGC | -2.99 ± 0.32 | -2.53 ± 0.49
31 | CGGCAGCAAUAUUACGAUCC | -2 ± 0.13 | -1.03 ± 0.21
32 | CGGCAGCAAUAUUACGAUUA | -2.86 ± 0.22 | -2.17 ± 0.2
33 | CGGCAGCAAUAUUACGCAAA | -2.77 ± 0.2 | -2.43 ± 0.22
34 | CGGCAGCAAUAUUACGCAUC | -3.25 ± 0.26 | -2.39 ± 0.41
35 | CGGCAGCAAUAUUACGCCCA | 0.189 ± 0.12 | -0.0939 ± 0.14
36 | CGGCAGCAAUAUUACGCGUC | -4.09 ± 0.25 | -2.4 ± 0.18
37 | CGGCAGCAAUAUUACGCUAU | -3.57 ± 0.28 | -2.75 ± 0.26
38 | CGGCAGCAAUAUUACGGAAA | -3.57 ± 0.26 | -2.7 ± 0.18
39 | CGGCAGCAAUAUUACGGAAG | -1.07 ± 0.09 | -0.442 ± 0.12
40 | CGGCAGCAAUAUUACGGACG | -2.73 ± 0.21 | -2.42 ± 0.28
41 | CGGCAGCAAUAUUACGGACU | -2.26 ± 0.17 | -1.34 ± 0.2
42 | CGGCAGCAAUAUUACGGGGA | -3.21 ± 0.16 | -3.07 ± 0.21
43 | CGGCAGCAAUAUUACGGGUA | -3.66 ± 0.25 | -2.84 ± 0.19
44 | CGGCAGCAAUAUUACGUAUG | -1.55 ± 0.048 | -0.303 ± 0.065
45 | CGGCAGCAAUAUUACGUUAU | -2.5 ± 0.17 | -2.56 ± 0.21
46 | CGGCAGCAAUAUUACGUUUU | -3.75 ± 0.17 | -2.09 ± 0.14
47 | CGGGAGCAAUAUUACGAAGU | – | -1.89 ± 0.43
48 | CGGGAGCAAUAUUACGAGCC | -0.749 ± 0.46 | –
49 | CGGGAGCAAUAUUACGAGGG | -2.28 ± 0.29 | –
50 | CGGGAGCAAUAUUACGAUGG | -2.44 ± 0.2 | -0.953 ± 0.24
